Results taken from PMC12363175.

Target: BANAL-20-52 S ectodomain with stabilizing mutations
Assay: AUC

Chain of peptidase domain (PD) of hACE2 (Q9BYF1 19-615): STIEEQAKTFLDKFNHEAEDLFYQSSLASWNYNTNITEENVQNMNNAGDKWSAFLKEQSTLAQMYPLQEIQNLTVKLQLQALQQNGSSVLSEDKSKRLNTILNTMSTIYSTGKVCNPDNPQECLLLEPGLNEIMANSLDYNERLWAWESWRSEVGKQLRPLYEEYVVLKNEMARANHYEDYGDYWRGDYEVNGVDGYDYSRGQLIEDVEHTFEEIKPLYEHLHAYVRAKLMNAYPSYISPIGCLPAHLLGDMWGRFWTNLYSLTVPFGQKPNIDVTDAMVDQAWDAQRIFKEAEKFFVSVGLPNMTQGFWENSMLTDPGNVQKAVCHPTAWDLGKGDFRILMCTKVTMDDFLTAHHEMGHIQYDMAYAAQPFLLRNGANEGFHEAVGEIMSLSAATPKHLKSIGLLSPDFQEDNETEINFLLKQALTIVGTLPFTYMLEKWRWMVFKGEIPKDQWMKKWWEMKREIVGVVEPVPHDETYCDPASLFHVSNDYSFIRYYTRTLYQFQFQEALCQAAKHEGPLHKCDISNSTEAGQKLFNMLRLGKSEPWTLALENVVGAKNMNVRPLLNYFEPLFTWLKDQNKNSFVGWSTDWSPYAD

## peptidase domain (PD) of hACE2 (from UniProt Q9BYF1 19-615) (domain or fragment)
  stoichiometry N (hACE2 molecules per S trimer): 2
